Measurements from patent US20180273635A1 (Zymeworks, published 2018).
Residue numbers refer to the chain shown, from its start. In names and notes the source's numbering stands. One block for each binder: values may come before it.

What was measured:
[1] = biological target: T1, Recombinant human HER2 (human, UniProt P04626 23-652); assay: SPR, pre-SEC; ratio to WT v10013;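 further: SPR on Biacore T200 at 25 °C, constructs captured via anti-human Fc on CM5 chip, HER2 ECD as analyte, 1:1 Langmuir global fit, after protein A purification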
T1 construct: extracellular domain; analyte of the SPR assays; also called HER2 ECD; ECD2 of HER2

[2] = biological target: T1, Recombinant human HER2; assay: SPR, variant captured on anti-human Fc, HER2 flowed, 25 C, pre-SEC;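 further: HER2 extracellular domain binding on Biacore T200, CM5 chip with amine-coupled anti-human Fc, duplicate antigen dilutions, global 1:1 Langmuir fit, measured after protein A purification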
[3] = biological target: T2, Recombinant human HER2 (human, UniProt P04626 23-652); assay: SPR, Biacore T200, 25 C; variant captured on anti-human Fc, HER2 flowed;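 further: HER2 extracellular domain analyte run as duplicate dilutions over amine-coupled anti-Fc on a CM5 chip, rates from global sensorgram fitting with a 1:1 Langmuir model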
T2 construct: extracellular domain; Analyte of the SPR assays; also called HER2 ECD; ECD2 of HER2
Experimental: The affinity towards HER2 ECD of the samples was measured by SPR on a Biacore T200 as follows. Between 2000 and 4000 RU of anti-human Fc injected at concentration between 5 and 10 μg/ml was immobilized on a CM5 chip using standard amine coupling. Antigen-binding constructs were captured on the anti-human Fc (injected at concentration at 0.51 microg/mL in PBST, 1 min at 10 microl/min) at response levels ranging from 120-270 RU. […] HER2 dilutions were analyzed in duplicates. Sensograms were fit globally to a 1: 1 Langmuir binding model, using the software provided with the Biacore T200. All experiments were conducted at 25° C.

B1: variant 12475 (antibody, human IgG1, kappa)
heavy: EVQLVESGGGLVQPGGSLRLSCAASGFRFTDYTMDWVRQAPGKGLEWVADVNPNSGGSIYNQRFKGRFTLSVDRSKNTLYLQMNSLRAEDTAVYYCARNLGPSFYFDYWGQGTLVTVSSASTKGPSVFPLAPSSKSTSGGTAALGCLVKDYFPEPVTVSWNSGALTSGVHTFPAVLQSSGLYSLSSVVTVPSSSLGTQTYICNVNHKPSNTKVDKKVEPKSCDKTHTCPPCPAPELLGGPSVFLFPPKPKDTLMISRTPEVTCVVVDVSHEDPEVKFNWYVDGVEVHNAKTKPREEQYNSTYRVVSVLTVLHQDWLNGKEYKCKVSNKALPAPIEKTISKAKGQPREPQVYVYPPSRDELTKNQVSLTCLVKGFYPSDIAVEWESNGQPENNYKTTPPVLDSDGSFALVSKLTVDKSRWQQGNVFSCSVMHEALHNHYTQKSLSLSPG
light: not shown
chain: not shown
notes: one-armed (OA) pertuzumab variant, HC T28R (Kabat); also called v12475
- Ka, mut/Ka, WT [1]: 0.4
- Kd [2]: 45 nM

B2: variant 12498 (antibody, human IgG1, kappa)
heavy: B1 heavy with R28T, Q62K
light: not shown
chain: not shown
notes: OA pertuzumab variant, HC Q61K (Kabat); also called v12498
- Ka, mut/Ka, WT [1]: 1
- Kd [2]: 19 nM

B5: variant 12496 (antibody, human IgG1, kappa)
heavy: B1 heavy with R28T, I59Y
light: not shown
chain: not shown
notes: OA pertuzumab variant, HC I58Y (Kabat); also called v12496
- Ka, mut/Ka, WT [1]: 0.3
- Kd [2]: 66 nM

B6: variant 12500 (antibody, human IgG1, kappa)
heavy: B1 heavy with R28T, S75Y
light: not shown
chain: not shown
notes: OA pertuzumab variant, HC S74Y (Kabat); also called v12500
- Ka, mut/Ka, WT [1]: 1
- Kd [2]: 20 nM

B7: variant 12495 (antibody, human IgG1, kappa)
heavy: B1 heavy with R28T, I59F
light: not shown
chain: not shown
notes: OA pertuzumab variant, HC I58F (Kabat); also called v12495
- Ka, mut/Ka, WT [1]: 0.4
- Kd [2]: 50 nM

B8: variant 12539 (antibody, human IgG1, kappa)
heavy: B1 heavy with R28T
light: DIQMTQSPSSLSASVGDRVTITCKASQDVSIGVAWYQQKPGKAPKLLIYSASYRYTGVPSRFSGSGSGTDFTLTISSLQPEDFATYYCQQTYIYPYTFGQGTKVEIKRTVAAPSVFIFPPSDEQLKSGTASVVCLLNNFYPREAKVQWKVDNALQSGNSQESVTEQDSKDSTYSLSSTLTLSKADYEKHKVYACEVTHQGLSSPVTKSFNRGEC
chain: not shown
notes: OA pertuzumab variant, LC Y91T (Kabat); also called v12539
- Ka, mut/Ka, WT [1]: 0.3
- Kd [2]: 75 nM

B10: variant 12526 (antibody, human IgG1, kappa)
heavy: B1 heavy with R28T, G57M, I59Y
light: not shown
chain: not shown
notes: also called v12526
- Ka, mut/Ka, WT [1]: 0.2
- Kd [2]: 130 nM

B14: variant 12518 (antibody, human IgG1, kappa)
heavy: B1 heavy with R28T, T30R, G57R
light: not shown
chain: not shown
notes: also called v12518
- Ka, mut/Ka, WT [1]: 0.9
- Kd [2]: 21 nM

B20: Variant 14052 (antibody, human IgG1, kappa)
heavy: B1 heavy with R28T, S103W
light: not shown
chain: not shown
notes: OA (one-armed) format; clones 7852, 8781, 4372; also called v14052
- Kd [3]: 55 nM
- koff [3]: 0.0053 s⁻¹
- kon [3]: 97000 M⁻¹ s⁻¹

B21: variant 12476 (antibody, human IgG1, kappa)
heavy: B1 heavy with R28K
light: not shown
chain: not shown
notes: OA pertuzumab variant, HC T28K (Kabat); also called v12476
- Ka, mut/Ka, WT [1]: 0.3
- Kd [2]: 61 nM

B22: variant 12481 (antibody, human IgG1, kappa)
heavy: B1 heavy with R28T, T30K
light: not shown
chain: not shown
notes: OA pertuzumab variant, HC T30K (Kabat); also called v12481
- Ka, mut/Ka, WT [1]: 0.1
- Kd [2]: 310 nM

B26: variant 14064 (antibody, human IgG1, kappa)
heavy: B1 heavy with R28T, K76A
light: not shown
chain: not shown
notes: OA pertuzumab variant, HC K75A (Kabat); also called v14064
- Ka, mut/Ka, WT [1]: 1.7
- Kd [2]: 9.7 nM

B27: variant 12487 (antibody, human IgG1, kappa)
heavy: B1 heavy with R28T, G57K
light: not shown
chain: not shown
notes: OA pertuzumab variant, HC G56K (Kabat); also called v12487
- Ka, mut/Ka, WT [1]: 0.4
- Kd [2]: 44 nM

B28: variant 12486 (antibody, human IgG1, kappa)
heavy: B1 heavy with R28T, S55H
light: not shown
chain: not shown
notes: OA pertuzumab variant, HC S54H (Kabat); also called v12486
- Ka, mut/Ka, WT [1]: 0.2
- Kd [2]: 92 nM

B29: variant 12545 (antibody, human IgG1, kappa)
heavy: B1 heavy with R28T, Q62R
light: not shown
chain: not shown
notes: OA pertuzumab variant, HC Q61R, LC Y94K (Kabat); also called v12545
- Ka, mut/Ka, WT [1]: 0.2
- Kd [2]: 81 nM

Now from value to binder:

- Ka, mut/Ka, WT [1]: 0.6
- Kd [2]: 30 nM
B3: variant 12488 (antibody, human IgG1, kappa)
heavy: B1 heavy with R28T, G57R
light: not shown
chain: not shown
notes: OA pertuzumab variant, HC G56R (Kabat); also called v12488

- Ka, mut/Ka, WT [1]: 0.8
- Kd [2]: 23 nM
B4: variant 12535 (antibody, human IgG1, kappa)
heavy: B1 heavy with R28T
light: B8 light with T91N
chain: not shown
notes: OA pertuzumab variant, LC Y91N (Kabat); also called v12535

- Ka, mut/Ka, WT [1]: 0.5
- Kd [2]: 40 nM
B9: variant 12542 (antibody, human IgG1, kappa)
heavy: B1 heavy with R28T, F64G
light: not shown
chain: not shown
notes: OA pertuzumab variant, HC F63G (Kabat); also called v12542

- Ka, mut/Ka, WT [1]: 1.3
- Kd [2]: 15 nM
B11: variant 12546 (antibody, human IgG1, kappa)
heavy: B1 heavy with R28T, Q62R
light: B8 light with D1N, T91Y
chain: not shown
notes: OA pertuzumab variant, HC Q61R, LC D1N (Kabat); also called v12546

- Ka, mut/Ka, WT [1]: 0.3
- Kd [2]: 63 nM
B12: variant 12541 (antibody, human IgG1, kappa)
heavy: B1 heavy with R28T
light: not shown
chain: not shown
notes: OA pertuzumab variant, LC Y96L (Kabat); also called v12541

- Ka, mut/Ka, WT [1]: 1.1
- Kd [2]: 17 nM
B13: variant 12492 (antibody, human IgG1, kappa)
heavy: B1 heavy with R28T, G57W
light: not shown
chain: not shown
notes: OA pertuzumab variant, HC G56W (Kabat); also called v12492

- Ka, mut/Ka, WT [1]: 1
- Kd [2]: 20 nM
B15: variant 12543 (antibody, human IgG1, kappa)
heavy: B1 heavy with R28T, F64L
light: not shown
chain: not shown
notes: OA pertuzumab variant, HC F63L (Kabat); also called v12543

- Ka, mut/Ka, WT [1]: 1.5
- Kd [2]: 11 nM
B16: variant 14065 (antibody, human IgG1, kappa)
heavy: B1 heavy with R28T, K76I
light: not shown
chain: not shown
notes: OA pertuzumab variant, HC K75I (Kabat); also called v14065

- Ka, mut/Ka, WT [1]: 0.3
- Kd [2]: 57 nM
B17: variant 12537 (antibody, human IgG1, kappa)
heavy: B1 heavy with R28T
light: not shown
chain: not shown
notes: OA pertuzumab variant, LC Y96M (Kabat); also called v12537

- Ka, mut/Ka, WT [1]: 1.6
- Kd [2]: 10 nM
B18: variant 14066 (antibody, human IgG1, kappa)
heavy: B1 heavy with R28T, K76V
light: not shown
chain: not shown
notes: OA pertuzumab variant, HC K75V (Kabat); also called v14066

- Ka, mut/Ka, WT [1]: 0.8
- Kd [2]: 26 nM
B19: variant 12515 (antibody, human IgG1, kappa)
heavy: B1 heavy with R28T
light: B8 light with T56W, T91Y
chain: not shown
notes: OA pertuzumab variant, LC T56W (Kabat); also called v12515

- Ka, mut/Ka, WT [1]: 0.3
- Kd [2]: 69 nM
B23: variant 12499 (antibody, human IgG1, kappa)
heavy: B1 heavy with R28T, S75D
light: not shown
chain: not shown
notes: OA pertuzumab variant, HC S74D (Kabat); also called v12499

- Ka, mut/Ka, WT [1]: 0.9
- Kd [2]: 23 nM
B24: variant 12477 (antibody, human IgG1, kappa)
heavy: B1 heavy with R28T, T30R
light: not shown
chain: not shown
notes: OA pertuzumab variant, HC T30R (Kabat); also called v12477

- Ka, mut/Ka, WT [1]: 0.2
- Kd [2]: 85 nM
B25: variant 12501 (antibody, human IgG1, kappa)
heavy: B1 heavy with R28T, S75E
light: not shown
chain: not shown
notes: OA pertuzumab variant, HC S74E (Kabat); also called v12501
